The values below come from publication PMC8032985, “The Interaction Mechanism of Intrinsically Disordered PP2A Inhibitor Proteins ARPP-16 and ARPP-19 With PP2A” (Frontiers in Molecular Biosciences, 2021).

The chains are these.
B1: PP2A regulatory subunit B56δ (natural protein)
chain: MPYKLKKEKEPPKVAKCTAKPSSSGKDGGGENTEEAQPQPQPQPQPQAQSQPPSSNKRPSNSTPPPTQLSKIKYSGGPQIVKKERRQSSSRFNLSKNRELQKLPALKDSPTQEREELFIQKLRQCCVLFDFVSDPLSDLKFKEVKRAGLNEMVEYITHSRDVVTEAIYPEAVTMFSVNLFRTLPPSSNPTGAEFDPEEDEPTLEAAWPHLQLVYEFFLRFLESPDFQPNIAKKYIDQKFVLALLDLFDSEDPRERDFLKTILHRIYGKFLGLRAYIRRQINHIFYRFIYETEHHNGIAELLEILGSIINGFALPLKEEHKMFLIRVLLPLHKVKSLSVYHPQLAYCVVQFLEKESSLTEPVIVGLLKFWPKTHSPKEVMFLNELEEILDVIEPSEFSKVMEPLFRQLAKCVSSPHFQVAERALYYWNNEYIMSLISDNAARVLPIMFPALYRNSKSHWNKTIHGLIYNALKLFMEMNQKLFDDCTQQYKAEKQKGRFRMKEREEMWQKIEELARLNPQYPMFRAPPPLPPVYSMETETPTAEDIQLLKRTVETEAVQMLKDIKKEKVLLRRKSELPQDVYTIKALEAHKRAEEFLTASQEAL
modifications: NT-647-NHS fluorescent dye (Monolith NT Protein labeling kit red NHS)
B2: PP2A regulatory subunit B56ε (natural protein)
chain: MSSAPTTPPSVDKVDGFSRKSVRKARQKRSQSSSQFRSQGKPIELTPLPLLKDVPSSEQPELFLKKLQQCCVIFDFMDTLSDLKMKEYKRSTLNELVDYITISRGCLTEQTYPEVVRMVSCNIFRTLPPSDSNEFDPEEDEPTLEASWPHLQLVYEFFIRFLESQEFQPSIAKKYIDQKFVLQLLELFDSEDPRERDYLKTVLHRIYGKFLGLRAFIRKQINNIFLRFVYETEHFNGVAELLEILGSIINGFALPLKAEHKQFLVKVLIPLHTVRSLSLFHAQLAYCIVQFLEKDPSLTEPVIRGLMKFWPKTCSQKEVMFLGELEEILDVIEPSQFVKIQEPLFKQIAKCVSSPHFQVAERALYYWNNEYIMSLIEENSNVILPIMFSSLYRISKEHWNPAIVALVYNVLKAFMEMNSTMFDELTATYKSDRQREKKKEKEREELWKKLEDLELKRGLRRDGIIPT
modifications: NT-647-NHS fluorescent dye (Monolith NT Protein labeling kit red NHS)
B3: cAMP-regulated phosphoprotein 19 (ARPP-19), wild type (natural protein)
chain: MSAEVPEAASAEEQKEMEDKVTSPEKAEEAKLKARYPHLGQKPGGSDFLRKRLQKGQKYFDSGDYNMAKAKMKNKQLPTAAPDKTEVTGDHIPTPQDLPQRKPSLVASKLAG
modifications: 15N-labelled in the NMR titration
B4: ARPP-19 S104E phosphomimicking mutant (natural protein)
chain: B3 chain with S104E
B5: ARPP-19 S62E phosphomimicking mutant (natural protein)
chain: B3 chain with S62E

Common to all, as to assay: MST; NT-647-NHS-labelled PP2A subunit at 20 nM as target, 12-point twofold dilution series of unlabelled ARPP as ligand; SEC buffer with 0.05% Tween-20; triplicate; single-site binding model
What all share (conditions): both partners purified

Experiment [1] addresses T1, ARPP-16 S46E phosphomimicking mutant (human).
T1 construct: one residue left at the N-terminus after TEV cleavage; human ARPP-16, UniProt P56211-2, with S46E; numbers count on: ARPP-16 (P56211-2); source: E. coli BL21 Gold, purified (glutathione agarose, TEV cleavage, SEC); not shown: GST, N-terminal, cleaved

Experiment [2] addresses T2, ARPP-16 S88E phosphomimicking mutant (human).
T2 construct: one residue left at the N-terminus after TEV cleavage; human ARPP-16, UniProt P56211-2, with S88E; numbers count on: ARPP-16 (P56211-2); source: E. coli BL21 Gold, purified (glutathione agarose, TEV cleavage, SEC); not shown: GST, N-terminal, cleaved

Experiment [3] concerns the target T3, ARPP-16 (splice variant of ARPP-19), wild type (human, 15N-labelled in the NMR titration).
T3 construct: one residue left at the N-terminus after TEV cleavage; human ARPP-16, splice variant of ARPP-19 lacking its first 16 residues, UniProt P56211-2; numbers count on: ARPP-16 (P56211-2); pGTvL1-SGC vector; also called ARPP-16 WT; source: E. coli BL21 Gold, purified (glutathione agarose, TEV cleavage, SEC); not shown: GST, N-terminal, cleaved

Experiment [4] concerns the target B1.
Experiment [5] has as its target T4, PP2A scaffolding subunit PR65α, full length (UniProt P30153 1-589, NT-647-NHS fluorescent dye (Monolith NT Protein labeling kit red NHS) in the MST; unlabelled in the NMR titration).
T4 construct: PP2A scaffolding subunit PR65α, full length; pGTvL1-SGC vector, expressed and purified as the ARPP proteins; also called PP2A A-subunit; A-subunit; source: E. coli BL21 Gold, purified (glutathione agarose, TEV cleavage, SEC); not shown: GST, N-terminal, cleaved

Experiment [6] concerns the target B2.
For experiment [7], the target named is T5, PP2A regulatory subunit B56γ (NT-647-NHS fluorescent dye (Monolith NT Protein labeling kit red NHS)).
T5 construct: one residue left at the N-terminus after TEV cleavage; PP2A regulatory subunit B56γ, UniProt Q13362-1; source: E. coli BL21 Gold, purified (glutathione agarose, TEV cleavage, SEC); not shown: GST, N-terminal, cleaved
T5 sequence (Q13362 whole entry): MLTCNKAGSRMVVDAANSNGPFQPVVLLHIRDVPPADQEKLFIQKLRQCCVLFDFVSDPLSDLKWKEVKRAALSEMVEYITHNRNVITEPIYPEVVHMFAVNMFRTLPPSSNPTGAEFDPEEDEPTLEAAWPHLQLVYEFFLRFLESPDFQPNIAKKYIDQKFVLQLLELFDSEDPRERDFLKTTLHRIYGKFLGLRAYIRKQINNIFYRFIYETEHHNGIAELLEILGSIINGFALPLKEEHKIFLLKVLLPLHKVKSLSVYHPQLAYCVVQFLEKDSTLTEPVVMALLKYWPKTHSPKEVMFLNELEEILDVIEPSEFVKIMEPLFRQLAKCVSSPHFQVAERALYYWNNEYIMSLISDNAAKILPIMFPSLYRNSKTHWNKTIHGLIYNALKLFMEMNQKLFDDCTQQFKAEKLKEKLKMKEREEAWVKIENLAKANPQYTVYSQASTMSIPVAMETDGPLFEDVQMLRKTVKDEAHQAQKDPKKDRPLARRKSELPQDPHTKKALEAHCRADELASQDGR

Experiment [8] deals with PP2A regulatory subunit B56α (NT-647-NHS fluorescent dye (Monolith NT Protein labeling kit red NHS)).

A word on the Kd: it is a measure of binding affinity in units of concentration.

Residue numbers refer to the chain shown, from its start. In names and notes the source's numbering stands. Where only a bound is given, the exact number is not on record here.

T4 sequence (P30153 whole entry): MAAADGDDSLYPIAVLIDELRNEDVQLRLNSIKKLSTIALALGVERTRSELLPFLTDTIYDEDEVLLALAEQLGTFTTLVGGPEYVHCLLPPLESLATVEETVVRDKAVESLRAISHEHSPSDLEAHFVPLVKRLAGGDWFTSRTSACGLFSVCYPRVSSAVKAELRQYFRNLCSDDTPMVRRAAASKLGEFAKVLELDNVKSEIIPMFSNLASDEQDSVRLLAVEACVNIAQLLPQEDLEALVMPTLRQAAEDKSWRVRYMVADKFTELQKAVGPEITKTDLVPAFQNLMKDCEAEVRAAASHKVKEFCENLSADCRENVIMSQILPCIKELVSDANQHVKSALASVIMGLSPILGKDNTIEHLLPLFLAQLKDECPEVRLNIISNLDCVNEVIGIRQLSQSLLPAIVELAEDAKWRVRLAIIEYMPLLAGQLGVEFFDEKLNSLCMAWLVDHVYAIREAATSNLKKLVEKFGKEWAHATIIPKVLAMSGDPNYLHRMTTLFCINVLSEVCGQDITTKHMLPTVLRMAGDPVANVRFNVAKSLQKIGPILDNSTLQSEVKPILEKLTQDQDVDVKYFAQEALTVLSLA
T2 sequence (Q14738 whole entry S88E): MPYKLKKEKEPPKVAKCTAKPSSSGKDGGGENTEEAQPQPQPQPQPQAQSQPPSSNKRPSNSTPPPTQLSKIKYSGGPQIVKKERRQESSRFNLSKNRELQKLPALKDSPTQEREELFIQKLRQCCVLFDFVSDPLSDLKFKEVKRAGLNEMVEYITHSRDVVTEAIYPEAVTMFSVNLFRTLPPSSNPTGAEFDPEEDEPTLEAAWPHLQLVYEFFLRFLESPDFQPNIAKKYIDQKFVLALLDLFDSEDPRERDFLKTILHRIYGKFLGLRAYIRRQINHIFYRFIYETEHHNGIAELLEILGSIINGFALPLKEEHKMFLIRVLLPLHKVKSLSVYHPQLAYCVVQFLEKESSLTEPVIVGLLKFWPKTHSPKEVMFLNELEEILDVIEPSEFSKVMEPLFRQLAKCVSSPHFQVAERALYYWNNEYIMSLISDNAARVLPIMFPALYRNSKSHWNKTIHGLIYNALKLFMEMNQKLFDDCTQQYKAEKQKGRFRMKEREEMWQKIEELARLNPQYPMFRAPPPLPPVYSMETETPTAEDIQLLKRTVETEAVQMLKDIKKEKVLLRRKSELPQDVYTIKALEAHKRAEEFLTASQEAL

Consider B1, for which the Kd in experiment [1] was 110 µM; in experiment [2], 40.7 µM; in experiment [3] it was over 700 µM.

B2: the values for the dissociation constant (Kd) in experiment [1] and in experiment [3] were 250 µM and over 500 µM, respectively.

For B3, the equilibrium dissociation constant (Kd) in experiment [4] was 430 µM; in experiment [5], 7.9 µM; in experiment [6], over 800 µM; in experiment [7] it was over 1300 µM; in experiment [8], 470 µM.

On to B4, for which the Kd is 195 µM in experiment [4], 6.1 µM in experiment [5], 320 µM in experiment [7] and 85 µM in experiment [8].

Consider B5, for which the dissociation constant (Kd) in experiment [4] was 95 µM; in experiment [5] it was 7.5 µM; in experiment [6], over 700 µM; in experiment [7] it was 195 µM; in experiment [8], 110 µM.
